Assay results taken from patent publication US20230348569A1.

Target: SARS-CoV-2 spike protein variant V376F on VSV pseudoparticles (SARS-CoV-2) (UniProt P0DTC2)
Test: cell-based or functional assay

mAb10987 (antibody)
Neutralization IC50: 0.0178 nM
